# Source: publication PMC8298264, “Function of cofactor Akirin2 in the regulation of gene expression in model human neutrophil-like HL60 cells” (Bioscience Reports, 2021)
# System: human HL60 cells
# Assay: SWATH-MS proteomics, differential protein representation, akirin2 KO vs WT HL60 cells
# Assay type: cell-based
# Settings: KO vs WT; akirin2 KO vs WT HL60 cells; sheet "Under-represented in KO"
# In short: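 First, proteins from wild-type and knockout cells are digested with trypsin by FASP. Next, pooled IDA runs generate a reference ion library. Then six samples of 5 µg each are acquired by data-independent SWATH, and protein areas are normalized to the summed area of all detected proteins.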
Molecule,Fold Change,Log (Fold Change)
"sp¦P27824¦CALX_HUMAN (protein, UniProt P27824 21-592, looked up) Calnexin: HDGHDDDVIDIEDDLDDVIEEVEDSKPDTTAPPSSPKVTYKAPVPTGEVYFADSFDRGTLSGWILSKAKKDDTDDEIAKYDGKWEVEEMKESKLPGDKGLVLMSRAKHHAISAKLNKPFLFDTKPLIVQYEVNFQNGIECGGAYVKLLSKTPELNLDQFHDKTPYTIMFGPDKCGEDYKLHFIFRHKNPKTGIYEEKHAKRPDADLKTYFTDKKTHLYTLILNPDNSFEILVDQSVVNSGNLLNDMTPPVNPSREIEDPEDRKPEDWDERPKIPDPEAVKPDDWDEDAPAKIPDEEATKPEGWLDDEPEYVPDPDAEKPEDWDEDMDGEWEAPQIANPRCESAPGCGVWQRPVIDNPNYKGKWKPPMIDNPSYQGIWKPRKIPNPDFFEDLEPFRMTPFSAIGLELWSMTSDIFFDNFIICADRRIVDDWANDGWGLKKAADGAAEPGVVGQMIEAAEERPWLWVVYILTVALPVFLVILFCCSGKKQTSGMEYKKTDAPQPDVKEEEEEKEEEKDKGDEEEEGEEKLEEKQKSDAEEDGGTVSQEEEDRKPKAEEDEILNRSPRNRKPRRE",0.6087,-0.2156
"sp¦Q8N5K1¦CISD2_HUMAN (protein, UniProt Q8N5K1 2-135, looked up) CDGSH iron-sulfur …: VLESVARIVKVQLPAYLKRLPVPESITGFARLTVSEWLRLLPFLGVLALLGYLAVRPFLPKKKQQKDSLINLKIQKENPKVVNEINIEDLCLTKAAYCRCWRSKTFPACDGSHNKHNELTGDNVGPLILKKKEV",0.6126,-0.2128
"sp¦Q15397¦PUM3_HUMAN (protein, UniProt Q15397 1-648, looked up) Pumilio homolog 3: MEVKGKKQFTGKSTKTAQEKNRFHKNSDSGSSKTFPTRKVAKEGGPKVTSRNFEKSITKLGKKGVKQFKNKQQGDKSPKNKFQPANKFNKKRKFQPDGRSDESAAKKPKWDDFKKKKKELKQSRQLSDKTNYDIVVRAKQMWEILRRKDCDKEKRVKLMSDLQKLIQGKIKTIAFAHDSTRVIQCYIQYGNEEQRKQAFEELRDDLVELSKAKYSRNIVKKFLMYGSKPQIAEIIRSFKGHVRKMLRHAEASAIVEYAYNDKAILEQRNMLTEELYGNTFQLYKSADHRTLDKVLEVQPEKLELIMDEMKQILTPMAQKEAVIKHSLVHKVFLDFFTYAPPKLRSEMIEAIREAVVYLAHTHDGARVAMHCLWHGTPKDRKVIVKTMKTYVEKVANGQYSHLVLLAAFDCIDDTKLVKQIIISEIISSLPSIVNDKYGRKVLLYLLSPRDPAHTVREIIEVLQKGDGNAHSKKDTEVRRRELLESISPALLSYLQEHAQEVVLDKSACVLVSDILGSATGDVQPTMNAIASLAATGLHPGGKDGELHIAEHPAGHLVLKWLIEQDKKMKENGREGCFAKTLVEHVGMKNLKSWASVNRGAIILSSLLQSCDLEVANKVKAALKSLIPTLEKTKSTSKGIEILLEKLST",0.6182,-0.2089
"sp¦Q13464¦ROCK1_HUMAN (protein, UniProt Q13464 2-1354, looked up) Rho-associated protein kinase …: STGDSFETRFEKMDNLLRDPKSEVNSDCLLDGLDALVYDLDFPALRKNKNIDNFLSRYKDTINKIRDLRMKAEDYEVVKVIGRGAFGEVQLVRHKSTRKVYAMKLLSKFEMIKRSDSAFFWEERDIMAFANSPWVVQLFYAFQDDRYLYMVMEYMPGGDLVNLMSNYDVPEKWARFYTAEVVLALDAIHSMGFIHRDVKPDNMLLDKSGHLKLADFGTCMKMNKEGMVRCDTAVGTPDYISPEVLKSQGGDGYYGRECDWWSVGVFLYEMLVGDTPFYADSLVGTYSKIMNHKNSLTFPDDNDISKEAKNLICAFLTDREVRLGRNGVEEIKRHLFFKNDQWAWETLRDTVAPVVPDLSSDIDTSNFDDLEEDKGEEETFPIPKAFVGNQLPFVGFTYYSNRRYLSSANPNDNRTSSNADKSLQESLQKTIYKLEEQLHNEMQLKDEMEQKCRTSNIKLDKIMKELDEEGNQRRNLESTVSQIEKEKMLLQHRINEYQRKAEQENEKRRNVENEVSTLKDQLEDLKKVSQNSQLANEKLSQLQKQLEEANDLLRTESDTAVRLRKSHTEMSKSISQLESLNRELQERNRILENSKSQTDKDYYQLQAILEAERRDRGHDSEMIGDLQARITSLQEEVKHLKHNLEKVEGERKEAQDMLNHSEKEKNNLEIDLNYKLKSLQQRLEQEVNEHKVTKARLTDKHQSIEEAKSVAMCEMEKKLKEEREAREKAENRVVQIEKQCSMLDVDLKQSQQKLEHLTGNKERMEDEVKNLTLQLEQESNKRLLLQNELKTQAFEADNLKGLEKQMKQEINTLLEAKRLLEFELAQLTKQYRGNEGQMRELQDQLEAEQYFSTLYKTQVKELKEEIEEKNRENLKKIQELQNEKETLATQLDLAETKAESEQLARGLLEEQYFELTQESKKAASRNRQEITDKDHTVSRLEEANSMLTKDIEILRRENEELTEKMKKAEEEYKLEKEEEISNLKAAFEKNINTERTLKTQAVNKLAEIMNRKDFKIDRKKANTQDLRKKEKENRKLQLELNQEREKFNQMVVKHQKELNDMQAQLVEECAHRNELQMQLASKESDIEQLRAKLLDLSDSTSVASFPSADETDGNLPESRIEGWLSVPNRGNIKRYGWKKQYVVVSSKKILFYNDEQDKEQSNPSMVLDIDKLFHVRPVTQGDVYRAETEEIPKIFQILYANEGECRKDVEMEPVQQAEKTNFQNHKGHEFIPTLYHFPANCDACAKPLWHVFKPPPALECRRCHVKCHRDHLDKKEDLICPCKVSYDVTSARDMLLLACSQDEQKKWVTHLVKKIPKNPPSGFVRASPRTLSTRSTANQSFRKVVKNTSGKTS",0.6099,-0.2148
"sp¦Q9UL25¦RAB21_HUMAN (protein, UniProt Q9UL25 2-222, looked up) Ras-related protein Rab-21: AAAGGGGGGAAAAGRAYSFKVVLLGEGCVGKTSLVLRYCENKFNDKHITTLQASFLTKKLNIGGKRVNLAIWDTAGQERFHALGPIYYRDSNGAILVYDITDEDSFQKVKNWVKELRKMLGNEICLCIVGNKIDLEKERHVSIQEAESYAESVGAKHYHTSAKQNKGIEELFLDLCKRMIETAQVDERAKGNGSSQPGTARRGVQIIDDEPQAQTSGGGCC",0.6117,-0.2135
"sp¦O43592¦XPOT_HUMAN (protein, UniProt O43592 1-962, looked up) Exportin-T: MDEQALLGLNPNADSDFRQRALAYFEQLKISPDAWQVCAEALAQRTYSDDHVKFFCFQVLEHQVKYKYSELTTVQQQLIRETLISWLQAQMLNPQPEKTFIRNKAAQVFALLFVTEYLTKWPKFFFDILSVVDLNPRGVDLYLRILMAIDSELVDRDVVHTSEEARRNTLIKDTMREQCIPNLVESWYQILQNYQFTNSEVTCQCLEVVGAYVSWIDLSLIANDRFINMLLGHMSIEVLREEACDCLFEVVNKGMDPVDKMKLVESLCQVLQSAGFFSIDQEEDVDFLARFSKLVNGMGQSLIVSWSKLIKNGDIKNAQEALQAIETKVALMLQLLIHEDDDISSNIIGFCYDYLHILKQLTVLSDQQKANVEAIMLAVMKKLTYDEEYNFENEGEDEAMFVEYRKQLKLLLDRLAQVSPELLLASVRRVFSSTLQNWQTTRFMEVEVAIRLLYMLAEALPVSHGAHFSGDVSKASALQDMMRTLVTSGVSSYQHTSVTLEFFETVVRYEKFFTVEPQHIPCVLMAFLDHRGLRHSSAKVRSRTAYLFSRFVKSLNKQMNPFIEDILNRIQDLLELSPPENGHQSLLSSDDQLFIYETAGVLIVNSEYPAERKQALMRNLLTPLMEKFKILLEKLMLAQDEERQASLADCLNHAVGFASRTSKAFSNKQTVKQCGCSEVYLDCLQTFLPALSCPLQKDILRSGVRTFLHRMIICLEEEVLPFIPSASEHMLKDCEAKDLQEFIPLINQITAKFKIQVSPFLQQMFMPLLHAIFEVLLRPAEENDQSAALEKQMLRRSYFAFLQTVTGSGMSEVIANQGAENVERVLVTVIQGAVEYPDPIAQKTCFIILSKLVELWGGKDGPVGFADFVYKHIVPACFLAPLKQTFDLADAQTVLALSECAVTLKTIHLKRGPECVQYLQQEYLPSLQVAPEIIQEFCQALQQPDAKVFKNYLKVFFQRAKP",0.6107,-0.2142
"sp¦P04899¦GNAI2_HUMAN (protein, UniProt P04899 2-355, looked up) Guanine nucleotide-binding …: GCTVSAEDKAAAERSKMIDKNLREDGEKAAREVKLLLLGAGESGKSTIVKQMKIIHEDGYSEEECRQYRAVVYSNTIQSIMAIVKAMGNLQIDFADPSRADDARQLFALSCTAEEQGVLPDDLSGVIRRLWADHGVQACFGRSREYQLNDSAAYYLNDLERIAQSDYIPTQQDVLRTRVKTTGIVETHFTFKDLHFKMFDVGGQRSERKKWIHCFEGVTAIIFCVALSAYDLVLAEDEEMNRMHESMKLFDSICNNKWFTDTSIILFLNKKDLFEEKITHSPLTICFPEYTGANKYDEAASYIQSKFEDLNKRKDTKEIYTHFTCATDTKNVQFVFDAVTDVIIKNNLKDCGLF",0.61,-0.2146

# Same assay, conditions: akirin2 KO vs WT HL60 cells; sheet "Under-represented in KO"
Molecule,Fold Change,Log (Fold Change)
"sp¦Q14683¦SMC1A_HUMAN (protein, UniProt Q14683 1-1233, looked up) Structural maintenance of …: MGFLKLIEIENFKSYKGRQIIGPFQRFTAIIGPNGSGKSNLMDAISFVLGEKTSNLRVKTLRDLIHGAPVGKPAANRAFVSMVYSEEGAEDRTFARVIVGGSSEYKINNKVVQLHEYSEELEKLGILIKARNFLVFQGAVESIAMKNPKERTALFEEISRSGELAQEYDKRKKEMVKAEEDTQFNYHRKKNIAAERKEAKQEKEEADRYQRLKDEVVRAQVQLQLFKLYHNEVEIEKLNKELASKNKEIEKDKKRMDKVEDELKEKKKELGKMMREQQQIEKEIKEKDSELNQKRPQYIKAKENTSHKIKKLEAAKKSLQNAQKHYKKRKGDMDELEKEMLSVEKARQEFEERMEEESQSQGRDLTLEENQVKKYHRLKEEASKRAATLAQELEKFNRDQKADQDRLDLEERKKVETEAKIKQKLREIEENQKRIEKLEEYITTSKQSLEEQKKLEGELTEEVEMAKRRIDEINKELNQVMEQLGDARIDRQESSRQQRKAEIMESIKRLYPGSVYGRLIDLCQPTQKKYQIAVTKVLGKNMDAIIVDSEKTGRDCIQYIKEQRGEPETFLPLDYLEVKPTDEKLRELKGAKLVIDVIRYEPPHIKKALQYACGNALVCDNVEDARRIAFGGHQRHKTVALDGTLFQKSGVISGGASDLKAKARRWDEKAVDKLKEKKERLTEELKEQMKAKRKEAELRQVQSQAHGLQMRLKYSQSDLEQTKTRHLALNLQEKSKLESELANFGPRINDIKRIIQSREREMKDLKEKMNQVEDEVFEEFCREIGVRNIREFEEEKVKRQNEIAKKRLEFENQKTRLGIQLDFEKNQLKEDQDKVHMWEQTVKKDENEIEKLKKEEQRHMKIIDETMAQLQDLKNQHLAKKSEVNDKNHEMEEIRKKLGGANKEMTHLQKEVTAIETKLEQKRSDRHNLLQACKMQDIKLPLSKGTMDDISQEEGSSQGEDSVSGSQRISSIYAREALIEIDYGDLCEDLKDAQAEEEIKQEMNTLQQKLNEQQSVLQRIAAPNMKAMEKLESVRDKFQETSDEFEAARKRAKKAKQAFEQIKKERFDRFNACFESVATNIDEIYKALSRNSSAQAFLGPENPEEPYLDGINYNCVAPGKRFRPMDNLSGGEKTVAALALLFAIHSYKPAPFFVLDEIDAALDNTNIGKVANYIKEQSTCNFQAIVISLKEEFYTKAESLIGVYPEQGDCVISKVLTFDLTKYPDANPNPNEQ",0.2754,-0.5601
